Data reported in US20230226096A1 (Orna Therapeutics, Inc., priority 2020, published 2023).

B1: HRVC3 QPM (nucleic acid, listed as Rhinovirus sp.)
DNA: TTAAAGCTGGATCATGGTTGTTCCCACCATGATTACCCACGCGGTGCAGTGGTCTTGTATTACGGTACATTTCCATACCAGTTTTATACACCCCACCCCGAAACTCATAGAAGTTTGTACACAATGACCAATAGGTGGTGGCCATCCAGGTCGCTAATGGTCAAGCACTTCTGTTTCCCCGGCACCCTTGTATACGCTTCACCCGAGGCGAAAAATGAGGTTGTCGTTATCCGCAAAGTGCCTACGAAAAGCCTAGTAACACTTTGAAAACCCATGGTTGGTCGCTCAGCTGTTTACCCAACAGTAGACCTGGCAGATGAGGCTAGACATTCCCCACCAGCGATGGTGGTCTAGCCTGCGTGGCTGCCTGCACACCCTGCCGGGTGTGAAGCCAGAAAGTGGACAAGGTGTGAAGAGCCTATTGTGCTCACTTTGAGTCCTCCGGCCCCTGAATGTGGCTAACCCTAACCCCGTAGCTGTTGCATGTAACCCAACATGTATGCAGTCGTAATGGGCAACTATGGGATGGGACCAACTACTTTGGGTGTCCGTGTTTCCTGTTTTACTTTTTCATTGCTTATGGTGACAATTGTATCTGATACACTTGTTACC
B2: Parabovirus A3 (nucleic acid, listed as Parabovirus sp.)
DNA: ACCGTTACGCACCACTCAGTTGGTGTTTGGTGGCACCAATGATGGAACAAAAGGCTACACCACTTGGGCTACGGCCCGCGCCACCTTGTGGCGCAAAGACATTAGAAGAATAGCATACCGCCCACTAGGGCCCTGCAGCCAGCAGGGTAACGGGCAAGCACTTCTGTCTCCCCGGTAGAACGGTATAGGCTGTACCCACGGCCGAAAACTGAACTATCGTTACCCGACTCCGTACTTCGCAAAGCTTAGTAGGAAACTGGAAAGTTCGAGTTATTGACCCGGAGTGTTCCCCCCACTCCAGAAACGCGTGATGAGGGTTGCCACCCCGACCATGGCGACATGGTGGGCATCCCTGCGCTGGCACGCGGCCTCTAAGAGGATAACTCGCTCCTACTGGTAACCGAAGAGCCCCGTGAGCTACGGTTTATTCCTCCGCCTCCCTGAATGCGGCTAATCCTAACCCATGAGCAGTTGCCATAGATCCATATGGTGGACTGTCGTAACGCGTAAGTTGTGGGCGGAACCGACTACTTTGGGATGGCGTGTTTCCTTGTTTTCTCCATTTGTTGTTGTATGGTGACAAGTTATAGATCTCGATCTATAGCGTTTCTTGAGAGATTTCCAAACATTTATTCAAGTCGTACAATTCTTGTGTTTAAGCAGTACAGTGTAAGG
B3: HRVB27 (nucleic acid, listed as Rhinovirus sp.)
DNA: TTAAAACAGCGGATGGGTATCCCACCATCCGACCCACAGGGTGTAGTGCTCTGGTATTTTGTACCTTTGCACGCCTGTTTCCCCATTGTACCCCTCCTTAAATTTCCTCCCCAAGTAACGTTAGAAGTTTAAGGAAACAAATGTACAATAGGAAGCATCACATCCAGTGGTGTTATGTACAAGCACTTCTGTTTCCCCGGAGCGAGGTATAAGTGGTACCCACCGCCGAAAGCCTTTAACCGTTATCCGCCAATCAACTACGTAATGGCTAGTATTACCATGTTTGTGACTTGGTGTTCGATCAGGTGGTTCCCCCCACTAGTTTGGTCGATGAGGCTAGGAACTCCCCACGGGTGACCGTGTCCTAGCCTGCGTGGCGGCCAACCCAGCTTTTGCTGGGACGCCTTTTTACAGACATGGTGTGAAGACCTGCATGTGCTTGATTGTGAGTCCTCCGGCCCCTGAATGCGGCTAACCTTAACCCCGGAGCCTTGCAACATAATCCAATGTTGTTGAGGTCGTAATGAGTAATTCTGGGATGGGACCGACTACTTTGGGTGTCCGTGTTTCCTTTTATTCTTTATATTGTCTTATGGTCACAGCATATATAGCATATATACTGTGATC
B4: EV K (nucleic acid)
DNA: TCAGCCTGACGCAAGTGCCTCCATTGGAGTCTCTCCAAGCCCTCCGGGGCTTGGAGGGCGCCGACCCCCTGCCTAGGGGGAGCCCACGACACGGCTGGAGTCCATTGGCACACCGCAGCCACGATTCAAGCCAGAATTGAAAGCGGGAAGCACTTCTGTCTCCCCGGTGTGGATCATACGCTGTACCCACGGCGAAAAGTGAAGCATCGTTACCCGACTCGGTACTTCGAGAAGCCCAGTACAGTTGTGGATCTCTGCAGGGTATACGCTCAGCGTGACCCCTACGTAGTTCCTTGAGATGGCTGAGAGAACACCCCACGGGCGACCGTGTCTCTCGGCGCGTGGCTCAAGGCCGGGCCTTCAGTGGCTCGGTGCCTTGCAGAGTGAAGCCTCCGAACAGCCTATTGAGCTACCGTTTAGCCTCCGCCCTCTTGAATGCGGCTAATCCTAACCATGGAGCGCCCGCCCACAGTCCAGTGGGTAGAGCGTCGTAACGCGCAAGTCCGTGGCGGAACCGACTACTTTAGAGTGGCGTGTTTCCAATTTATCCTTTATAAAGTTGCTTATGGTGACACCACAAGAGATCCACGATTTCTTGTTTCTTATCACTGAGACACAAGTCATATTCATCAATCTTTATTGCGGAATTAACTTGGTGCGTCCAAACACATCAGC
modifications: Enterovirus K
B5: EV L (nucleic acid)
DNA: ACATGGGCCAGCCCACCACACCCACTGGGTGTAGTAGTCTGGTTCTATGGAACCTTTCTACGCCTCTTTTGCTTCCCTCCCCCATTTCTCCTTCGATTGCTCCACCTGTGATCTTTGCAACTTAGAAGAAATAATGAACCCGCACAATAGCGGGCGCTGAGCCACAGCGTCAATGTGCAAGCACTTCTGTTTCCCCGGAATGGGCCCATAGGCTGTACCCACGGCTGAAAGGGACCGGCCCGTTACCCGCCTTGGTACTGCGAGAATGTTAGTAACTCCCTCGATAGCTTTAGGCGTTACGCTCAGCCCTTTGAGCCCGAAGGGTAGTTCGGGTCGATGAGGCTCGTCATTCCCCACTGGCGACAGTGTGACTTGCCTGCGTTGGCGGCCCGGGGTGGGGGGCAACCCCCATCCACGCCTACTGAAGGACAGGGTGTGAAGGCGCTATTGCGCTACTAAGGAGTCCTCCGGCCCCTGAATGCGGCTAACCCGAACCCCGAGCCCACGGTGGTAAACCCGCCACAAGTGGGTCGTAATGAGTAATTTGGGGCAGGGACCGACTACTTTGGGTGTCCGTGTTTCCTGTTTTTCCATACGATGGCTGCTTATGGTGACAACCATAAGCAATTGGATTGGCCATCCGGTGTTCATATTGCGAAT
modifications: Enterovirus L
B6: Boosepivirus A (nucleic acid)
DNA: TTGAAAGACCTCGGCATATATCGTTGTCACAACGGTATATGTCGAGATCTTTCTCCCCACCCCCTCCAATTCCCTTTTCCCCCTCTTGCAACTTAGAAGTTTGTACACACAGGGCAATAGGATACGTGATCCAGCCAGGACACGTGAGCTCAAGCACTTCTGTTTCCCCGTCCCCTTCACGTACTACGGGAATGTTAGTAATTTGTGTGCACTTTAGTAAGGTTGATCCGGGATTAACCCCAAATCCCAGAAACTGGTGATGAGCGTTACCACCCCCGCCGGGCGACCGGAAGGTTTCGCTGCGTTGGCACCAGGGCTTCGGCACCAGAAAAAGGTAAAGCAAATGAAGGCGCTACTGTGCTACGAGAAGTTTCCTCCAGGCCCCTGAATGCGGCTAATCCTAACCAGTGATCCACCGGTGCAAAACCATGTACTAGGTGGTCGTAACGCGCAAGTCGCTGGCGGAACCGACTACTTTGGGTGTCCTGTGTTTCCATATTTTATTTTATTCAATTTTATGGTGACAAGAGTAAAGAGATACAGATTTGCAGCC
modifications: Boosepivirus A
B7: HRVA73 (nucleic acid, listed as Rhinovirus sp.)
DNA: TTAAAACTGGGTTTGGGTTGTTCCCACCCAAACCACCCACGCGGTGTTGTACACTGTTATTCCGGTAACCTTGTACGCCAGTTTTATATCCCTTCCCCCCCTTGTAACTTAGAAGACATGCGAATCGACCAATAGCAGGCAATCAACCAGATTGTCACCGGTCAAGCACTTCTGTTTCCCCGGCTCTCGTTGATATGCTCCAACAGGGCAAAAACAATTGGAGTCGTTACCCGCAAGATGCCTACGCAAAACCTAGTAGCATCTTCGAAGATTTTTGGTTGGTCGCTCAGTTGCTACCCCAGCAATAGACCTGGCAGATGAGGCTAGAAATACCCCACTGGTGACAGTGTTCTAGCCTGCGTGGCTGCCTGCACACCCACACGGGTGTGAAGCCAAAGATTGGACAAGGTGTGAAGAGTCACGTGTGCTCATCTTGAGTCCTCCGGCCCCTGAATGCGGCTAACCTTAACCCCGTAGCCATTGCTCGCAATCCAGCGAGTATATGGTCGTAATGAGTAATTACGGGATGGGACCGACTACTTTGGGTGTCCGTGTTTCACTTTTTACTTATCAATTTGCTTATGGTGACAATATATATAGATATATATTGACACC
B8: Phacovirus Pf-CHK1 (nucleic acid)
DNA: GTGTGTCATTTCTCCCCTCCCCCTCCCAAACCTTTTCCCCCTCTAATCGGATTGATTAACCCGGTTAAAGATGATTAATGGTTTGTGAGTTGATATGATGGCCCGGCATTGAATCCGGGAATTCTTAAGTAATGGAATTGCATCCAATATGAAAGTGAGTGTGGCAAGCTCACAAGTAGTACTTGGCTCTGCCCATTATTTGAGGACCAACTCTTCTTGACTACAATGTGTTTAAAGTAAACTGGACCACATTGTGTATCCAGACAACTCCATTTGATAATGTACGCTGGAAACGTTTTCAGTGCATAGGGTCCTAAAGTGGTGCTGAAATATTGCAAGCTCAATGGGATACTGAACGCTGAAAACCGCCGCTGTTATCATATGGGCCCCTAGTGGGTAAATGTTGGCTTTAGGCATATACTGCTTGGGAATGCAGTACTGGTTGTAGACAGGGTGATAGCCTACCGGCTGGCGTAGTTGAGTTGGTATAGCCAGTTGATTGCCAT
B9: Felipivirus 127F (nucleic acid, listed as Felipivirus sp.)
DNA: GATGTCGGATGACGGCTGGCCACCGGGGAAAAACGGCAAATGTGCACCACCTCTGCAACCCACGCCGACCACGTTTAACCATGGCGTTAGTAGGAGTGGACCACTGCAGTGGGCTCTGGTGTGCGACAGTCAGTGGTAGAGTAGACAGTCCTGACTGGGCAATGGGACCGCGTTGCGTATCCCTAGGTGGCATCGAGATTCCTCTGCTACCCACCAGCGTGGACTCCTATGGGGGGGGCCCCATAGGCTAGGTCTATACTGCCTGATAGGGTCGCGGCTGGTCGACCACTGACTGTATAACCAGTTGTAACTCACT
B10: Boosepivirus B (nucleic acid)
DNA: TTTTCTCCCCTCCCCCTCCAACTACCTTTTCCCCCTCTTGTAACGCTAGAAGTTTGTGCAAACCGCCTGTAGGGTACTGCAATCCAGCAGTGCATAGGCTAAGCTTTTCTTGTTACCCCACCCCACATTATACTGAGGAGGATTGTGAAATTGTGTTAGTATGGGTTAGTAGCGGTGACCCGGGTAACCCCAACCCAGAAACTCACGGATGAGATGAACAGGACCCCACATGGTAACGTGTGTGTTCGTCTGCCCCGCAAGGTGAGGCCGTGAGAGCTTTGCACGCGAAAACCTTGAAAACCCAAAAGTACCTTGAGCTCTTCGCTATTTTGTGTTTCCTCCAGGACCCTGAATGCGGCTAAACCTAACCCGCGATCCGCACGTAGCAACCCAGCTAGAGTGTGGTCGTAATGCGCAAGTTGCGGGCGGTACCGACTACTTTGGTGTTCCTGTGTTTCCTTTATTTTATTTTGAATTTTTATGGTGACAACAGCTAGAAAATAAGAGTGAAC
modifications: Boosepivirus B

Each molecule was assayed on HEK293 cells. Settings: luminescence from secreted Gluc in supernatant 24 hours after transfection of HEK293 cells; circular RNA encoding Gluc with the named IRES (UTR truncated to 675 nt).
Assay type: cell-based, human

Compared with B1, B2 is higher in Expression: 1.64E+07 for the first, 2.44E+08 for the second.

First: B3
Second: B4
The Expression of the first is higher: 2.04E+08 for the first, 7.52E+07 for the second.

First: B5
Second: B6
The Expression of the first is lower: 6.49E+07 for the first, 7.07E+07 for the second.

Going from B7 to B8, the Expression falls from 1.08E+08 to 5.87E+06.

Going from B9 to B10, the Expression rises from 8.92E+06 to 1.17E+08.
